The target of experiment [1] is recombinant von Willebrand Factor A1 domain (amino acids 1277-1453 of human vWF) (human) (UniProt P04275). In words: fluorescence anisotropy; particle-bound dimeric polypeptide titrated against 150 nM vWF A1-AlexaFluor 488. Background: Fluorescence polarisation rises when a labelled molecule tumbles more slowly, as on binding a larger partner.
In experiment [2] the target is T1, human von Willebrand Factor of human blood plasma (human, UniProt P04275 764-2813).
T1 construct: mature; Native plasma protein in ELISA samples; also called vWF; plasma vWF
T1 sequence (P04275 764-2813 limits assumed): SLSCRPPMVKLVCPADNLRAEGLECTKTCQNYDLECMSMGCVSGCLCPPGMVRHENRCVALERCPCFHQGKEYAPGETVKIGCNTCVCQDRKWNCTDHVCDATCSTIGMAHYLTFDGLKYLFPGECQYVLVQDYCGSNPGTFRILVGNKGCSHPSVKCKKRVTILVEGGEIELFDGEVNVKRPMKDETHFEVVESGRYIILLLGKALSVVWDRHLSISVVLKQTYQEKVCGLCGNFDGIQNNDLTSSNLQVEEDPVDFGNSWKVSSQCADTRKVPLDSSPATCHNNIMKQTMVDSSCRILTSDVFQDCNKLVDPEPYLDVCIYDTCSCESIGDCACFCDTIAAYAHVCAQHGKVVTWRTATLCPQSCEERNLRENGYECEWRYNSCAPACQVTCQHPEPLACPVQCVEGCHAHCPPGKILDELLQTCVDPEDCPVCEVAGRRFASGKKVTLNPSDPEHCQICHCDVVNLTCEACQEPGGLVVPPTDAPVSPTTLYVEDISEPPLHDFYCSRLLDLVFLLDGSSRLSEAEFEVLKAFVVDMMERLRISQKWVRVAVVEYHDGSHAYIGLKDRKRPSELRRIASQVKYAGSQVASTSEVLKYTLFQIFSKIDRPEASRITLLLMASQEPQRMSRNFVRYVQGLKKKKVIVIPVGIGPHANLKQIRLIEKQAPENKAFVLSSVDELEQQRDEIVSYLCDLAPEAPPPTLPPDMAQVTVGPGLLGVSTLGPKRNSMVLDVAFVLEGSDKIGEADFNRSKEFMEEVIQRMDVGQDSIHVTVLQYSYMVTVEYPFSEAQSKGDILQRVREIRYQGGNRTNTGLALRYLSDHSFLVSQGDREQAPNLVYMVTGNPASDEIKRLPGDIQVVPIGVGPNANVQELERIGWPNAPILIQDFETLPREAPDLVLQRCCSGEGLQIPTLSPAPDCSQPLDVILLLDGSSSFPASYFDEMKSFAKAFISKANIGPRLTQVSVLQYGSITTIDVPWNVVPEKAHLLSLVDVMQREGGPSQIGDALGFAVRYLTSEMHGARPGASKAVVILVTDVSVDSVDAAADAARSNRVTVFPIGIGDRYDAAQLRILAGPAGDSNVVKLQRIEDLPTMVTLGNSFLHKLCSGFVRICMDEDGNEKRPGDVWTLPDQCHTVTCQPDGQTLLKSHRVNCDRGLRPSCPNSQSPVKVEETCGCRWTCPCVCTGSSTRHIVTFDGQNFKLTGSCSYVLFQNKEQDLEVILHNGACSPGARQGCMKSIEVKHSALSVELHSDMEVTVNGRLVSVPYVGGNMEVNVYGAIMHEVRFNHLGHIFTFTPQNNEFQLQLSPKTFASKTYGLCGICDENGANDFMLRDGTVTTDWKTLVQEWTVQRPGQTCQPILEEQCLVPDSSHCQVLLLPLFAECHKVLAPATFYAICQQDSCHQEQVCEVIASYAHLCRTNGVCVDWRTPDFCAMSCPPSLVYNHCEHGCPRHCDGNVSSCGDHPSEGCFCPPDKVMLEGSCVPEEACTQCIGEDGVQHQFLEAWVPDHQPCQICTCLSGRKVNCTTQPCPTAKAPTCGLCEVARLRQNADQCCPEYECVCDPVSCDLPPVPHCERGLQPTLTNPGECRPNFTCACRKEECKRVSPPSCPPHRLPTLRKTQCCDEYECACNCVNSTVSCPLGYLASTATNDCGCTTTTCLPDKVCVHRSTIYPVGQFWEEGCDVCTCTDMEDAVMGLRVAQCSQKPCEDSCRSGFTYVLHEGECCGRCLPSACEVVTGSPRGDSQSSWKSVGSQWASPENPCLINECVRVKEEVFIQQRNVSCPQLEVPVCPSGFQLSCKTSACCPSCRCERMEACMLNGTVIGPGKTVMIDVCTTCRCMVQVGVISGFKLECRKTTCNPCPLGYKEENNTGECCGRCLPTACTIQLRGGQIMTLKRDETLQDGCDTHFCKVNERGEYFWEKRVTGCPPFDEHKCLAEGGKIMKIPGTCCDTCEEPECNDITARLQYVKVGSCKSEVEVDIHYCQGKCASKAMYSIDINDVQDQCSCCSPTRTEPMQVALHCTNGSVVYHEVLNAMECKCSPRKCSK
In words: sandwich ELISA: polypeptide captured on anti-CD42b, plasma added, detection with polyclonal rabbit anti-human vWF-HRP. An excerpt:
FIG. 4A is a cartoon of the enzyme-linked immunosorbent assay (ELISA) used to generate the data in FIG. 4B-4D. A solid support was coated with anti-glycoprotein Ibα antibody (anti-CD42b), which was used to immobilize recombinant polypeptide comprising a modified extracellular domain of platelet glycoprotein Ibα (CD42b; GPIbα; GP1b constructs). The solid support was then contacted with human blood plasma, von Willebrand Factor calibrators, or von Willebrand Factor controls. The solid support was then contacted with a polyclonal rabbit anti-human von Willebrand Factor antibody to which horseradish peroxidase (HRP) was conjugated. The composition was then contacted with a substrate capable of being converted into a product by HRP with a strong absorbance at 450 nm, and absorbance was measured.
Enzyme immunosorbent assays (ELISA) were used to determine that recombinant polypeptides comprising the G233T (SEQ ID NO: 21), D235V (SEQ ID NO: 30), and K237V (SEQ ID NO: 31) mutations are capable of detecting qualitative differences in vWF binding affinity. […] Briefly, the wells of a multi-well plate were coated with an anti-CD42b antibody, which specifically binds the modified extracellular domain of GPIbα of the recombinant polypeptides and was used to indirectly cross-link the recombinant polypeptides to the multi-well plate (i.e., the solid support). Various control samples, standards, and serial dilutions thereof were added to different wells of the multi-well plate including plasma samples associated with type 1, type 2B, and type 3 von Willebrand Disease, control samples of pooled human blood plasma, control samples of human blood plasma known not to have von Willebrand Disease, a 2× serial dilution of a reference standard of pooled human plasma from no dilution to 16-fold dilution, and goat blood serum as a negative control. […] Bound vWF was quantified by monitoring the conversion of a horseradish peroxidase substrate into product by absorption spectroscopy at 450 nm.
In general terms: In an ELISA, binding on a coated surface is turned into a signal by an enzyme label.

Experiment [3] concerns the target recombinant von Willebrand Factor A1 domain (amino acids 1277-1453 of human vWF) (human) (UniProt P04275). Description: SPR (Biacore); vWF A1 domain on CM5 chip, soluble polypeptide; Kd from on- and off-rates; SPR (Biacore), vWF A1 domain on CM5 chip. On the technique in general: Surface plasmon resonance follows binding to a sensor surface in real time, without labels.

Where “and” joins values, the source holds several entries; their conditions need not be identical. Equal values may be shown once. Some results are limits rather than exact numbers.

The text below walks through data of patent US20240279312A1 (Hoffmann-La Roche, published 2024).

In general, Kd refers to the concentration at which binding is half-saturated.

Sequence of recombinant von Willebrand Factor A1 domain (amino acids 1277-1453 of human vWF) (human) (P04275 1277-1453 limits assumed, form in doubt): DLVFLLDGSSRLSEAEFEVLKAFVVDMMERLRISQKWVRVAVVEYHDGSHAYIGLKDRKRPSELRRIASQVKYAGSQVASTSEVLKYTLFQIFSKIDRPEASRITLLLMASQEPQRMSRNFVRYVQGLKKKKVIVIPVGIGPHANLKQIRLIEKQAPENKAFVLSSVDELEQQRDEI

In the case of “dimeric polypeptide of SEQ ID NO: 37 (WT): GPIbα extracellular domain without gain- or loss-of-function mutation, murine Fc dimerization domain (Fc fusion)”, the Kd in experiment [1] was 1250 nM.

B1: dimeric polypeptide of SEQ ID NO: 21: GPIbα extracellular domain with C65S and G233T, murine IgG1 Fc dimerization domain, 8-His tag (Fc fusion)
chain: HPICEVSKVASHLEVNCDKRNLTALPPDLPKDTTILHLSENLLYTFSLATLMPYTRLTQLNLDRSELTKLQVDGTLPVLGTLDLSHNQLQSLPLLGQTLPALTVLDVSFNRLTSLPLGALRGLGELQELYLKGNELKTLPPGLLTPTPKLEKLSLANNNLTELPAGLLNGLENLDTLLLQENSLYTIPKGFFGSHLLPFAFLHGNPWLCNCEILYFRRWLQDNAENVYVWKQTVDVKAMTSNVASVQCDNSDKFPVYKYPGKGCPTLGDEGDTDLYDYYPEEDTEGDKVRVPRDCGCKPCICTVPEVSSVFIFPPKPKDVLTITLTPKVTCVVVDISKDDPEVQFSWFVDDVEVHTAQTQPREEQFNSTFRSVSELPIMHQDWLNGKEFKCRVNSAAFPAPIEKTISKTKGRPKAPQVYTIPPPKEQMAKDKVSLTCMITDFFPEDITVEWQWNGQPAENYKNTQPIMDTDGSYFVYSKLNVQKSNWEAGNTFTCSVLHEGLHNHHTEKSLSHSPGIGHHHHHHHH
notes: On particles in fluorescence anisotropy, soluble in SPR, captured by anti-CD42b in ELISA; also called G233T mutant; G233T recombinant polypeptide
Consider B1, for which the binding result in experiment [2] was “binds”. The Kd in experiment [1] was 67 nM and < 500 nM; in experiment [3], 58 nM.

B2: dimeric polypeptide of SEQ ID NO: 30: GPIbα extracellular domain with C65S and D235V, murine Fc dimerization domain (Fc fusion)
chain: HPICEVSKVASHLEVNCDKRNLTALPPDLPKDTTILHLSENLLYTFSLATLMPYTRLTQLNLDRSELTKLQVDGTLPVLGTLDLSHNQLQSLPLLGQTLPALTVLDVSFNRLTSLPLGALRGLGELQELYLKGNELKTLPPGLLTPTPKLEKLSLANNNLTELPAGLLNGLENLDTLLLQENSLYTIPKGFFGSHLLPFAFLHGNPWLCNCEILYFRRWLQDNAENVYVWKQGVVVKAMTSNVASVQCDNSDKFPVYKYPGKGCPTLGDEGDTDLYDYYPEEDTEGDKVRVPRDCGCKPCICTVPEVSSVFIFPPKPKDVLTITLTPKVTCVVVDISKDDPEVQFSWFVDDVEVHTAQTQPREEQFNSTFRSVSELPIMHQDWLNGKEFKCRVNSAAFPAPIEKTISKTKGRPKAPQVYTIPPPKEQMAKDKVSLTCMITDFFPEDITVEWQWNGQPAENYKNTQPIMDTDGSYFVYSKLNVQKSNWEAGNTFTCSVLHEGLHNHHTEKSLSHSPGIGHHHHHHHH
notes: also called D235V mutant
Turning to B2, in experiment [2], the binding result is recorded as “binds”. Moreover, the Kd in experiment [1] was < 500 nM and 250 nM.

B3: dimeric polypeptide of SEQ ID NO: 31: GPIbα extracellular domain with C65S and K237V, murine Fc dimerization domain (Fc fusion)
chain: HPICEVSKVASHLEVNCDKRNLTALPPDLPKDTTILHLSENLLYTFSLATLMPYTRLTQLNLDRSELTKLQVDGTLPVLGTLDLSHNQLQSLPLLGQTLPALTVLDVSFNRLTSLPLGALRGLGELQELYLKGNELKTLPPGLLTPTPKLEKLSLANNNLTELPAGLLNGLENLDTLLLQENSLYTIPKGFFGSHLLPFAFLHGNPWLCNCEILYFRRWLQDNAENVYVWKQGVDVVAMTSNVASVQCDNSDKFPVYKYPGKGCPTLGDEGDTDLYDYYPEEDTEGDKVRVPRDCGCKPCICTVPEVSSVFIFPPKPKDVLTITLTPKVTCVVVDISKDDPEVQFSWFVDDVEVHTAQTQPREEQFNSTFRSVSELPIMHQDWLNGKEFKCRVNSAAFPAPIEKTISKTKGRPKAPQVYTIPPPKEQMAKDKVSLTCMITDFFPEDITVEWQWNGQPAENYKNTQPIMDTDGSYFVYSKLNVQKSNWEAGNTFTCSVLHEGLHNHHTEKSLSHSPGIGHHHHHHHH
notes: also called K237V mutant
For the molecule B3, the binding result in experiment [2] is listed as “binds”. In addition, the Kd in experiment [1] was < 500 nM and 300 nM.
